According to patent US20260001937A1, “NOVEL RECOMBINANT FIBRINOGEN VARIANTS FOR FIBRIN SEALANTS FOR SURGICAL WOUND CARE” (Julius-Maximilians-Universität Würzburg, priority 2022, published 2026):
Where a chain is given by its changes, count along the chain named.

Legend:
[1] = biological target: T1, synthetic gamma-chain peptide ATW(K)TRW with K changed to serine
T1 chain: ATWSTRW

[2] = biological target: T2, synthetic gamma-chain peptide TYS(K)AST with K changed to serine
T2 chain: TYSSAST

[3] = biological target: T3, Ala-rFbg (recombinant fibrinogen, gamma-chain K88A, K111A, K382A, K399A)
T3 chain 1: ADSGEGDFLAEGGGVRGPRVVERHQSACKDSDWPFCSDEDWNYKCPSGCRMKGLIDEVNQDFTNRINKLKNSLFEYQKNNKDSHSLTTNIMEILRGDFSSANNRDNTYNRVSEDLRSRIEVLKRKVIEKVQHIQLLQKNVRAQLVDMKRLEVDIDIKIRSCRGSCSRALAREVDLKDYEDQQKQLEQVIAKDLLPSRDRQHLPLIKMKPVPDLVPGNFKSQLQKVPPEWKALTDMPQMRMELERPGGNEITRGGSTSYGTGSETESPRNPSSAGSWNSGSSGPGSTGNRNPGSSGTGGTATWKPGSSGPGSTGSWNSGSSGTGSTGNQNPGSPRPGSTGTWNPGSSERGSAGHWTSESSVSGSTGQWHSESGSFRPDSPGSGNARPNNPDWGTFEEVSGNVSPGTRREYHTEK
T3 chain 2: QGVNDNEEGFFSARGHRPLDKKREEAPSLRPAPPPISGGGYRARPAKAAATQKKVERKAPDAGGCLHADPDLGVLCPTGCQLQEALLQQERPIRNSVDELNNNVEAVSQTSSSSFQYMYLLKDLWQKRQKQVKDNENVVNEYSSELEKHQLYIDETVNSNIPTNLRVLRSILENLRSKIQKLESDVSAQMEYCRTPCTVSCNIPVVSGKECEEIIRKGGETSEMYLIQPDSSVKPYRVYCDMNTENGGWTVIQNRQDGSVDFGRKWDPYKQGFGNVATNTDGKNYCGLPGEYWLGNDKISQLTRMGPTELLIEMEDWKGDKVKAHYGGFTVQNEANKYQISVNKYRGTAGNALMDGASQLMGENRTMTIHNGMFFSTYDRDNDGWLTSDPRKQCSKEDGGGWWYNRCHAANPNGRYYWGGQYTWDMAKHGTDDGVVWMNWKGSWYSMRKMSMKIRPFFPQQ
T3 chain 3: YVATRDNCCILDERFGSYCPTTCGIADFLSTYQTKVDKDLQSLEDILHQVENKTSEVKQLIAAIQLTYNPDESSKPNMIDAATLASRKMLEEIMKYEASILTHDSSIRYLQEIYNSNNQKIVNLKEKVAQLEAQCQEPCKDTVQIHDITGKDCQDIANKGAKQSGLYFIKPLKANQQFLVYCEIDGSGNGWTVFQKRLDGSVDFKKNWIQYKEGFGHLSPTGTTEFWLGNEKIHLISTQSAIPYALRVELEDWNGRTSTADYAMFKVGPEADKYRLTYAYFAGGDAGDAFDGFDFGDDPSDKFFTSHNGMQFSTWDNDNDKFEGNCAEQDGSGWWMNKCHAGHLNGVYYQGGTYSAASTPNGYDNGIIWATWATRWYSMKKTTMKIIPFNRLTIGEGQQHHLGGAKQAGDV

[4] = biological target: T4, fibrin gel (Sigma Aldrich fibrinogen, 20 mg/mL, gelled with thrombin, factor XIIIa and CaCl2), P02671
T4 chain 1: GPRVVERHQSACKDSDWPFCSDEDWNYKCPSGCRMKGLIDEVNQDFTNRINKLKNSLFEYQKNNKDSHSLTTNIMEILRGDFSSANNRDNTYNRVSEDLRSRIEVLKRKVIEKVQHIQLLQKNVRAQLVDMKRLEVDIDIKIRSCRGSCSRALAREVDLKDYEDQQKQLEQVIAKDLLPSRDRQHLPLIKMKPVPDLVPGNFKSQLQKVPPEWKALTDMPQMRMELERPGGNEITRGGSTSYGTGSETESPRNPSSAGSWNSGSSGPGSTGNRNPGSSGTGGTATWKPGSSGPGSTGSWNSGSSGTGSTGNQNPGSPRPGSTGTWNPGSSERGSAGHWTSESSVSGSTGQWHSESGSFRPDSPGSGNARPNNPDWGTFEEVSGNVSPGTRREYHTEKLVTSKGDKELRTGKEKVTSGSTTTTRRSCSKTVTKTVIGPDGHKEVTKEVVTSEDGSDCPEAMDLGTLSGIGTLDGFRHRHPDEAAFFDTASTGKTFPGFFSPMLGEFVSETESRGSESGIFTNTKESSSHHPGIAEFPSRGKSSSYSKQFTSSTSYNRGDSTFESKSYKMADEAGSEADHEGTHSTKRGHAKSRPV
T4 chain 2: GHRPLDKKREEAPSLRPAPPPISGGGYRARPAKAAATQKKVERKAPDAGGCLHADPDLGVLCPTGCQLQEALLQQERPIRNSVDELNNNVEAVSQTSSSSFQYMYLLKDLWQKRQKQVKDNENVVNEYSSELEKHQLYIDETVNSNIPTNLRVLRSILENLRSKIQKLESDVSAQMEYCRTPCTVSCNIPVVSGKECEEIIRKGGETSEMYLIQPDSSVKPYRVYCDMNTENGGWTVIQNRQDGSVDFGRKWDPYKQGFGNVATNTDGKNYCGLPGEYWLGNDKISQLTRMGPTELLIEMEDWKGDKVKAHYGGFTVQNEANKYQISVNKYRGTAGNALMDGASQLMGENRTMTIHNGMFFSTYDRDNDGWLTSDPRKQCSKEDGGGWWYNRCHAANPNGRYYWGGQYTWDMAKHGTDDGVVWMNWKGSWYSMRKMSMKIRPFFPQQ
T4 chain 3: T3 chain 3 with A62K, A85K, A356K, A373K

B1: human plasmin (Merck) (protein)
chain: KVYLSECKTGNGKNYRGTMSKTKNGITCQKWSSTSPHRPRFSPATHPSEGLEENYCRNPDNDPQGPWCYTTDPEKRYDYCDILECEEECMHCSGENYDGKISKTMSGLECQAWDSQSPHAHGYIPSKFPNKNLKKNYCRNPDRELRPWCFTTDPNKRWELCDIPRCTTPPPSSGPTYQCLKGTGENYRGNVAVTVSGHTCQHWSAQTPHTHNRTPENFPCKNLDENYCRNPDGKRAPWCHTTNSQVRWEYCKIPSCDSSPVSTEQLAPTAPPELTPVVQDCYHGDGQSYRGTSSTTTTGKKCQSWSSMTPHRHQKTPENYPNAGLTMNYCRNPDADKGPWCFTTDPSVRWEYCNLKKCSGTEASVVAPPPVVLLPDVETPSEEDCMFGNGKGYRGKRATTVTGTPCQDWAAQEPHRHSIFTPETNPRAGLEKNYCRNPDGDVGGPWCYTTNPRKLYDYCDVPQCAAPSFDCGKPQVEPKKCPGRVVGGCVAHPHSWPWQVSLRTRFGMHFCGGTLISPEWVLTAAHCLEKSPRPSSYKVILGAHQEVNLEPHVQEIEVSRLFLEPTRKDIALLKLSSPAVITDKVIPACLPSPNYVVADRTECFITGWGETQGTFGAGLLKEAQLPVIENKVCNRYEFLNGRVQSTELCAGHLAGGTDSCQGDSGGPLVCFEKDKYILQGVTSWGLGCARPNKPGVYVRVSRFVTWIEGVMRNN
plasmin cleavage efficiency of synthetic peptide, HPLC [1]: Peptide sequences including S instead of K showed a significant reduction in cleavage efficiency compared to the original sequences | plasmin cleavage efficiency of synthetic peptide, HPLC [2]: Peptide sequences including S instead of K showed a significant reduction in cleavage efficiency compared to the original sequences | plasmin cleavage analysis of target sites (peptide fragments detected by MS) [3]: Position 382 shows a partial cleavage for the mutants (both cleaved and non-cleaved peptides detected) | plasmin cleavage at the mutated gamma-chain sites 88, 111, 382, 399, high-resolution ESI-MS after 24 h digest in solution [3]: no cleavage was detected in either of the two mutants for all 4 mutations | time course of plasmin cleavage sites in the alpha-chain of fibrin gels, high-resolution ESI-MS (0.005 mU/ml plasmin, up to 2 h) [4]: cleavage begins in the αC region of fibrinogen with the most prominent cleavage at positions 602 (K|MADE) and 620 (K|RGHA). Next, cleavage sites further down the αC region are cleaved ... (e. g. positions 527 (K|TFPG), 510 (R|HRHP), 225 (K|MKPV) and 238 (K|SQLQ)). At the same time, cleavage in the α | time course of plasmin cleavage sites in the beta-chain of fibrin gels, high-resolution ESI-MS [4]: cleavage of the β-chain starts at the N-terminus highlighted by positions 52 (K|REEA) and 72 (R|ARPA) ... Subsequently, the α-helical part between fragment D and E is cleaved by plasmin (e. g. 152 (K|DLWQ) and 160 (K|QVKD)) | time course of plasmin cleavage sites in the gamma-chain of fibrin gels, high-resolution ESI-MS [4]: only one additional cleavage site was found in this time-resolved assay for γ-chain ... With only 5 cleavage sites detected during the early stages of plasmin degradation
